Results as given in PMC13429693, “Disease-associated genetic variants can cause missense effects in tissue-specific protein isoforms” (Nature Communications, 2026).

Substrate: Cc1cc(=O)oc2cc(NC(=O)[C@@H]3CCCN3C(=O)[C@@H](N)C(C)C)ccc12
Assay: AMC release kinetics, allosteric sigmoidal fit
Type: cell-based, Homo sapiens
Settings: A549 overexpression lysate; […] sitagliptin to exclude DPP4
Source text: AMC release kinetics, allosteric sigmoidal fit on DPP9-short (reference DPP9) | Enzyme kinetics for DPP9 reference and AFE isoforms

B1: DPP9-short (reference DPP9) (Homo sapiens) (protein)
chain: MATTGTPTADRGDAAATDDPAARFQVQKHSWDGLRSIIHGSRKYSGLIVNKAPHDFQFVQKTDESGPHSHRLYYLGMPYGSRENSLLYSEIPKKVRKEALLLLSWKQMLDHFQATPHHGVYSREEELLRERKRLGVFGITSYDFHSESGLFLFQASNSLFHCRDGGKNGFMVSPMKPLEIKTQCSGPRMDPKICPADPAFFSFINNSDLWVANIETGEERRLTFCHQGLSNVLDDPKSAGVATFVIQEEFDRFTGYWWCPTASWEGSEGLKTLRILYEEVDESEVEVIHVPSPALEERKTDSYRYPRTGSKNPKIALKLAEFQTDSQGKIVSTQEKELVQPFSSLFPKVEYIARAGWTRDGKYAWAMFLDRPQQWLQLVLLPPALFIPSTENEEQRLASARAVPRNVQPYVVYEEVTNVWINVHDIFYPFPQSEGEDELCFLRANECKTGFCHLYKVTAVLKSQGYDWSEPFSPGEDEFKCPIKEEIALTSGEWEVLARHGSKIWVNEETKLVYFQGTKDTPLEHHLYVVSYEAAGEIVRLTTPGFSHSCSMSQNFDMFVSHYSSVSTPPCVHVYKLSGPDDDPLHKQPRFWASMMEAASCPPDYVPPEIFHFHTRSDVRLYGMIYKPHALQPGKKHPTVLFVYGGPQVQLVNNSFKGIKYLRLNTLASLGYAVVVIDGRGSCQRGLRFEGALKNQMGQVEIEDQVEGLQFVAEKYGFIDLSRVAIHGWSYGGFLSLMGLIHKPQVFKVAIAGAPVTVWMAYDTGYTERYMDVPENNQHGYEAGSVALHVEKLPNEPNRLLILHGFLDENVHFFHTNFLVSQLIRAGKPYQLQIYPNERHSIRCPESGEHYEVTLLHFLQEYL
notes: 863 aa short isoform amplified from H358 cDNA or in-house plasmids; overexpressed in A549 cells, whole cell lysate; dimer
Q: Which results are given for B1?
A: K0.5: 4.411 ± 0.752 µM; Vmax: 2.24 µmol/min/mg
